Measured values from US20260174833A1.

Tests used:
[1] = target: TGFβ1 (R&D systems) (UniProt P01137); assay: cell-based or functional assay
[2] = target: IL2Rβ and common γ chain on 32Dβ cells; assay: cell-based or functional assay

Chain of UniProt P01137 (P01137 279-390 limits assumed): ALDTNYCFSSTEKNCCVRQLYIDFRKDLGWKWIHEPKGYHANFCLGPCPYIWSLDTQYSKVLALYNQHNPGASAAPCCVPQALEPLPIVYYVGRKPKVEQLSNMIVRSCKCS

IC50, inhibition of TGFβ1 activity in HEK-Blue TGFβ cells (QUANTI-Blue OD 620-655 nM) [1] | EC50, 32Dβ cell proliferation (WST1, absorbance at 450 nM) [2] | Substance
461 pM |  | TGFR-Fc (R&D Systems) (from UniProt P37173 24-159) (Fc fusion)
 | 10.6 pM | recombinant IL-15 (from UniProt P40933 49-162) (ligand)
